Experimental data published in patent US20190309079A1 (Regeneron, published 2019).
Each block holds one binder with its values, some of them ahead of it.

Experiments:
[1] = molecular target: T1, human LEPR CRH1-Ig (D2,D3)-MMH (human, UniProt P48357 230-427, limits assumed); assay: Luminex, myc-captured protein on beads
T1 construct: domain: CRH1-Ig (D2,D3)
T1 sequence (looked up): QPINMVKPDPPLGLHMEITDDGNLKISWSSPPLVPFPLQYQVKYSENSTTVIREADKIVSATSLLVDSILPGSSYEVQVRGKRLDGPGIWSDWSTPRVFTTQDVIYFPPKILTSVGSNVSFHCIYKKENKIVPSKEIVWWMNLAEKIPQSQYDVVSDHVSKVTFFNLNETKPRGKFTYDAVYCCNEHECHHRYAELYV
Procedure: (§1) Aliquots of microspheres with immobilized anti-myc monoclonal antibodies, prepared as described above, were added individually to 1 mL of the each of these protein supernatants. The microspheres were gently mixed, incubated for two hours at 25° C., washed twice with 1 mL of DBPS, centrifuged to remove the supernatant and finally resuspended in 1 mL of DPBS buffer. […] of anti-myc IgG coupled microspheres from individual reactions with full length human LEPR and with each of the human LEPR domain proteins were withdrawn and mixed together in 3.6 mL of PBS+20 mg/mL BSA+0.05% sodium azide (blocking buffer).
(§2) From this mixed pool, 75 μL of microspheres were plated per well on a 96 well filter plate (Millipore, Cat. No: MSBVN1250) and mixed with 25 μL of individual anti-human LEPR monoclonal antibodies (0.5 or 5 μg/mL), incubated for two hours at 25° C. and then washed twice with 200 μL of DPBS with 0.05% Tween 20 (washing buffer). […] After 30 minutes, the samples were washed twice with 200 µL of washing buffer and resuspended in 150 μL of wash buffer. The Median Fluorescence intensity (MFI) of the microspheres was measured in a Luminex Analyzer.

human LEPR Ig (D3)-MMH = molecular target: T2, human LEPR Ig (D3)-MMH (human, UniProt P48357 340-427, limits assumed); assay: Luminex, myc-captured protein on beads
T2 construct: domain: Ig (D3)
T2 sequence (looked up): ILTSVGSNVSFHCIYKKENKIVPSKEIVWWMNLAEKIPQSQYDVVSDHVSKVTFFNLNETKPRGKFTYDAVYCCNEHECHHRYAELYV
Procedure: as §1, §2

Luminex MFI [1]: 62 MFI
Luminex MFI (human LEPR Ig (D3)-MMH): 22 MFI
B1: H4H18487P2 (antibody, V domains shown)
VH: QVQLQESGPGLVKPSETLSLTCTVSGGSISNSYWSWIRQPPGKGLEWIGYVYSRGNTKYNPSLTSRVTMSFDTSKNQFSLKLRSVTAADTAVYYCARSSSWYEDWYFDLWGRGTLVTVSS
VL: not shown

Luminex MFI (human LEPR Ig (D3)-MMH): 27 MFI
B2: H4H18482P2 (antibody, human IgG4, V domains shown)
VH: QVQLQESGPGLVKPSQTLSLTCTVSGGSISSGNYYWNWIRQQPGEGLEWIAYIYHNGVTNFNPSLKSRLTISVDTSKTQFSLKLRSVTAADTAVYYCARSGSWFENWYFDLWGRGTLVTVSS
VL: not shown
notes: human IgG4 Fc

Luminex MFI [1]: 8680 MFI
Luminex MFI (human LEPR Ig (D3)-MMH): 19 MFI
B3: H4H18492P2 (antibody, V domains shown)
VH: QVQLQQWGAGLFKPSETLSLTCDVYGGSFRGYYWSWIRQPPGKGLEWIGEISYSGFTNYNPSLKSRVIISIDTSKNQFSLKMSSVTAADTAVYYCARVTYGYGTFDYWGQGTLVTVSS
VL: not shown
